Laboratory results reported in paper PMC11468790, “New Bacterial Aryl Sulfotransferases: Effective Tools for Sulfation of Polyphenols” (Journal of Agricultural and Food Chemistry, 2024).

Columns and labels:
[1] = system: O=[N+]([O-])c1ccc(OS(=O)(=O)O)cc1; assay: purified protein; conditions: varied donor pNPS 0.02-50 mM, acceptor phenol (5-200 mM), 30 °C, activity buffer Tris-glycine pH 8.9
[2] = system: T1, O=[N+]([O-])c1ccc(OS(=O)(=O)O)cc1; assay: purified protein; format: biochemical, Desulfosporosinus sp. HMP52; conditions: varied donor pNPS 0.02-50 mM, acceptor phenol (5-200 mM), 30 °C, activity buffer Tris-glycine pH 8.9
T1 construct: C-terminal His6 tag, pET-26b(+) NcoI/SacI, E. coli BL21(DE3)pLysS, IMAC, ca. 70 kDa

| Substance | Km [1] | kcat [1] | kcat/Km [1] | Km [2] | kcat [2] | kcat/Km [2] |
| --- | --- | --- | --- | --- | --- | --- |
| DalAST (Desulfofalx alkaliphila) | 34 ± 2 µM | 0.705 ± 0.007 s⁻¹ | 21000 M⁻¹ s⁻¹ | – | – | – |
| DsAST (Desulfosporosinus sp. HMP52) | – | – | – | 570 ± 20 µM | 32.5 ± 0.4 s⁻¹ | 57000 M⁻¹ s⁻¹ |
